For assay [1], the target named is T1, Recombinant human Angiopoietin-1 (R&D Systems Cat No 923-AN/CF) (human, UniProt Q15389 20-498, limits assumed).
T1 construct: Bought reagent; also called Ang1; human Ang1
T1 sequence (looked up): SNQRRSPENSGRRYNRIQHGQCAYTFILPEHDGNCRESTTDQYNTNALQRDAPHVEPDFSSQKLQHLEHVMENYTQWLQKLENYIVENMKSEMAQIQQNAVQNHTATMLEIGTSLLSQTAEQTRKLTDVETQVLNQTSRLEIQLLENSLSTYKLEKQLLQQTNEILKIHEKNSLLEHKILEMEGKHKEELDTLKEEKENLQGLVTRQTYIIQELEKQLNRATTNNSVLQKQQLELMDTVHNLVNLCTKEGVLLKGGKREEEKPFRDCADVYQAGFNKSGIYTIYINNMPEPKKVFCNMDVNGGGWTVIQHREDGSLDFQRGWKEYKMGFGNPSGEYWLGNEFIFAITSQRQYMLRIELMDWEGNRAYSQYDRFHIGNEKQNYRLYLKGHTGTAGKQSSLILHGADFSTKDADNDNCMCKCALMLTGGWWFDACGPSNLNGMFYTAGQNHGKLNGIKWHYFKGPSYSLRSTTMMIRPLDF
Kind of assay: phage ELISA: 10 ul monoclonal phage supernatant in 100 ul on 0.2 ug/ml coated Ang1, anti-M13-HRP, OD 450 nm. As for the experimental part: In order to determine binding specificity to Ang1, the clones are tested in an ELISA binding assay setup, using the monoclonal phage pools. Phage binding to Ang1 (R&D Systems Cat No 923-AN/CF, Lot No FHWO73091) is tested. Shortly, 0.2 ug/ml Ang1 is immobilized on Maxisorp ELISA plates (Nunc) and free binding sites are blocked using 4% Marvel skimmed milk in PBS. Next, 10 ul of supernatant from the monoclonal phage inductions of the different clones in 100 ul 2% Marvel PBS are allowed to bind to the immobilized antigen. […] Binding specificity is determined based on OD values compared to controls having received an irrelevant phage or no phage.

Assay [2] addresses T2, biotinylated rh Ang2 (R&D Systems Cat No BT623, Lot No BNR174091) (human, UniProt O15123 19-496, limits assumed, biotinylated (sites not given)).
T2 construct: Bought reagent; also called biotinylated Ang2
T2 sequence (looked up): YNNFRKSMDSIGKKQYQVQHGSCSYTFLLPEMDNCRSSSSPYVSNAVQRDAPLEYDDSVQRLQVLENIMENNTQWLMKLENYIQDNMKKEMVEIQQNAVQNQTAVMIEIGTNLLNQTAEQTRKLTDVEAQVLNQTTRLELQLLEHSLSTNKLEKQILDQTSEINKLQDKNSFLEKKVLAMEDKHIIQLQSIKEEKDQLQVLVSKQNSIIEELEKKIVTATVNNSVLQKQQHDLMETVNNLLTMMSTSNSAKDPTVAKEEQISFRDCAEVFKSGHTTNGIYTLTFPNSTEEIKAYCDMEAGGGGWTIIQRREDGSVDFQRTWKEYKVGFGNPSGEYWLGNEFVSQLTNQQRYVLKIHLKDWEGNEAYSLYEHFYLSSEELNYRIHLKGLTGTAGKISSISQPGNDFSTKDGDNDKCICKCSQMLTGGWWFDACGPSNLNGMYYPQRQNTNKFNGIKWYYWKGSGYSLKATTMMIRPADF
The experiment in a line: competition ELISA: 0.05 ug/ml biotinylated Ang2 pre-incubated with a dilution series of purified Nanobody, then on coated Tie2/Fc (4 ug/ml); bound Ang2 detected with extravidin-HRP; blocked partner: Tie2/Fc. As for the experimental part: In order to determine the receptor blocking efficiency of clones tested positive for Ang2 blocking, a dilution series of purified Nanobodies are tested in the ELISA-based ligand competition setup. In short, 4 ug/ml human Tie2/Fc Chimera (R&D Systems Cat No 313-TI, Lot No BKC06)) is coated in 96 well Maxisorp microtiter plates (Nunc) and blocked with 4% Marvel skimmed milk in PBS. In parallel, 0.05 ug/ml biotinylated rh Ang2 (R&D Systems Cat No BT623, Lot No BNR174091) is incubated with a dilution series of purified Nanobodies. After 1 hour, the biotinylated Ang2-Nanobody pre-mixes are incubated 1 hour with the coated receptor. Bound biotinylated Ang2 is detected using HRP-conjugated extravidin (SIGMA E2886-1ML, 126K4801). Blocking activity is determined as loss of OD signal, as compared to wells where no P.E., or irrelevant P.E. has been added.

Assay [3] concerns the target T3, Recombinant human Angiopoietin-2 (R&D Systems Cat No 623-AN/CF) (human, UniProt O15123 19-496, limits assumed).
T3 construct: Bought reagent; also called Ang2; human Ang2
T3 sequence (looked up): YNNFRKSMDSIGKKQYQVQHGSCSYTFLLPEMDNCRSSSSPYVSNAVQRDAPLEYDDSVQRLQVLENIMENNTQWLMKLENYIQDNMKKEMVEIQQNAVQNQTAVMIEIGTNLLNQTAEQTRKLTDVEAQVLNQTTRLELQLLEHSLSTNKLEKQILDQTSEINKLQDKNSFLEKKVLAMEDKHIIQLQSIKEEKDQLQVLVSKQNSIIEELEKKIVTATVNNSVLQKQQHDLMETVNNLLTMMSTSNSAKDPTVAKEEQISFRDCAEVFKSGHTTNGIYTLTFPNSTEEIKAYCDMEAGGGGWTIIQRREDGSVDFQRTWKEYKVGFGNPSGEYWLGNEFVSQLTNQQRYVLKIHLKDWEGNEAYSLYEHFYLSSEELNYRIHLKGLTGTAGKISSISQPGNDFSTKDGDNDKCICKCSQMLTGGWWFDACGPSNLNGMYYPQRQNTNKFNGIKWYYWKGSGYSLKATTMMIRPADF
The experiment in a line: listed in the alignment of Ang2 binding Nanobodies; assay not told for this clone.

Assay [4] addresses T4, recombinant human Tie2/Fc Chimera (R&D Systems Cat No 313-TI, Lot No BKC06) (human, UniProt Q02763 23-745).
T4 construct: Bought reagent; also called receptor; not shown: Fc portion of the bought chimera
Kind of assay: competition ELISA: 0.2 ug/ml Tie2/Fc pre-incubated with a dilution series of purified Nanobody, then on coated Ang1 (0.75 ug/ml); bound Tie2/Fc detected with anti-human IgG-HRP; blocked ligand: Ang1. The procedure: In order to determine the receptor blocking efficiency of clones tested positive for Ang1 competition, a dilution series of purified Nanobodies are tested in the ELISA-based ligand competition setup. In short, 0.75 ug/ml human. Ang1 (R&D Systems Cat No 923-AN/CF Lot No FHWO73091) is coated in 96 well Maxisorp microliter plates (Nunc) and blocked with 4% Marvel skimmed milk in PBS. In parallel, 0.2 ug/ml Tie2/Fc is incubated with a dilution series of purified Nanobodies. After 1 hour, the receptor-Nanobody pre-mixes are incubated 1 hour with the coated ligand. Bound Tie2/Fc is detected using HRP-conjugated goat anti-human IgG (Jackson Immunoresearch, Cat #109-035-098). Blocking activity is determined as loss of OD signal, as compared to wells where no P.E., or irrelevant P.E., has been added.
In general terms: In an ELISA, binding on a coated surface is turned into a signal by an enzyme label.

For assay [5], the target named is T4, recombinant human Tie2/Fc Chimera (R&D …). Kind of assay: phage ELISA: 10 ul monoclonal phage supernatant in 100 ul on 0.2 ug/ml coated Tie2/Fc, anti-M13-HRP, OD 450 nm. The procedure: In order to determine binding specificity to Tie2, the clones are tested in an ELISA binding assay setup, using the monoclonal phage pools. Phage binding to Tie2/Fc Chimera (R&D Systems Cat No 313-TI, Lot No BKC06) is tested. Shortly, 0.2 ug/ml receptor is immobilized on Maxisorp ELISA plates (Nunc) and free binding sites are blocked using 4% Marvel skimmed milk in PBS. Next, 10 ul of supernatant from the monoclonal phage inductions of the different clones in 100 ul 2% Marvel PBS are allowed to bind to the immobilized antigen. […] Binding specificity is determined based on OD values compared to controls having received no phage and to controls where in a similar ELISA binding assay the same monoclonal phage are tested for binding to 0.2 ug/ml of immobilized human IgG and 0.2 ug/ml of rh B7.2/Fc.

T4 sequence (Q02763 23-745, change not shown): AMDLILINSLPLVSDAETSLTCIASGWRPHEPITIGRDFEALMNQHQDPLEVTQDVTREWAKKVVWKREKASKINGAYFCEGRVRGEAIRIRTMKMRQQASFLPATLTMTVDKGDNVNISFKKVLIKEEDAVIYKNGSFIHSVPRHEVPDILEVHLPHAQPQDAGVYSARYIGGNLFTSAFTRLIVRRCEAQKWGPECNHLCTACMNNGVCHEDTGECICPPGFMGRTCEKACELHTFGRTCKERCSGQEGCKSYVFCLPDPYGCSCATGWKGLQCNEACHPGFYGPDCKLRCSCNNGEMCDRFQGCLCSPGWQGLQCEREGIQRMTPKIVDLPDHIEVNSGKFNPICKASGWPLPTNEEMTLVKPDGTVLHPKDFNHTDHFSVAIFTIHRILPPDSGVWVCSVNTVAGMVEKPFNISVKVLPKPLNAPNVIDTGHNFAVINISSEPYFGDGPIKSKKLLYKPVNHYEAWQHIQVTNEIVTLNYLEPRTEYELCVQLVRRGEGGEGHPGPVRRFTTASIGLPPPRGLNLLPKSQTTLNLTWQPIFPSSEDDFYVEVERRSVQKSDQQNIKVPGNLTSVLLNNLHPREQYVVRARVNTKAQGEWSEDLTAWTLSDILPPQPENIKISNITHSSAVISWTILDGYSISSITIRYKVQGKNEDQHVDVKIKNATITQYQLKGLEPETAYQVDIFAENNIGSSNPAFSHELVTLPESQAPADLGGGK

B1: 185-H5 (VHH)
VHH: EVQLVESGGGLVQPGGSLRLSCAASGFTLDYYAIGWFRQAPGKEREGVSYISSSDGRTYYADSVKGRFTISRDNAKNTVYLQMNSLKPEDTAVYYCATDLSGRGDVSEYEYDYWGQGTQVTVSS
notes: Nanobody
B1: the binding result in assay [1] is on record as “binds”.

B2: 173-H9 (VHH)
VHH: EVQLVESGGGLVQPGGSLRLSCAASGFTLSGNWMYWLRQAPGKGLEWISTITPRGLTAYADSVKGRFTISRDIAENTLYLQMNSLKSGDTAVYYCARDKTGERRGQGTQVTVSS
notes: Nanobody
Turning to B2, the binding result in assay [1] is on record as “binds”.

B3: 166-H4 (VHH)
VHH: EVQLVESGGDLVQAGGSLRLSCAASGFTFGDFTIGWFRQAPGKEREGVSCINTGDGSTNYAESVKGRFTISSDNAKNTVYLQMNSLKPEDTAVYYCALDQAPMWSSWSAPYEYDYWGQGTQVTVSS
notes: Nanobody
Turning to B3, in assay [2], the “IC50 (read off the curve)” value was roughly 4 nM.

B4: 166-H5 (VHH)
VHH: EVQLVESGGGLVQAGGSLSLACVVSGRFSRINSMAWSRQVPGNARELVASVTSGGYTNYVDSVKGRFTISRDNAKNAIYLQMNSLKSEDTAVYYCNARVVVRTAHGFEDNYWGQGTQVTVSS
Turning to B4, the binding result in assay [3] is recorded as “binds”.

B5: 162-E1 (VHH)
VHH: EVQLVESGGGLVQAGGSLRLSCAASGSIFSINAMGWYQQAPGKQRELVAFITSVGTTNYADSVKGRFIISRDNAKNTVYLQMNSLKPEDTAVYYCAADLHYSGPNYWGQGTQVTVSS
notes: Nanobody; Footnote: q in FR2 of 162-E1 from an Amber stop codon
In the case of B5, the “IC50 (read off the curve)” value in assay [4] was roughly 3 nM.

B6: 162-F3 (VHH)
VHH: EVQLVESGGGLVQAGDSLRLSCTTSGRTFSDDTMGWFRQAPRKEREFVAAILWDSIKTYYADSVKGRFTISRDNAKNTVYLQMDSLKPEDTAVYYCAATPTAYGTDWYRNNYHYWGQGTQVTVSS
notes: Nanobody
For B6, the binding result in assay [5] is “binds”.

B7: 184-B6 (VHH)
VHH: EVQLVESGGGLVQPGGSLRLSCAASGFTFSNYAMTWVRQAPGKGLEWVSDISWDGDITTYAASVKGRFTISRDNAKKTLYLQMNSLKPEDSAVYYCNTYGYDSGRYYSYWGQGTQVTVSS
notes: Nanobody
Regarding B7, the binding result in assay [1] is given as “binds”.

B8: 162-E9 (VHH)
VHH: EVQLVESGGGLVQPGGSLRLSCAASGFTLDDYAIGWFRQAPGKEREAVSCISSVDGSTHYADSVKGRFTISRDNAKDTVYLQMNSLKPEDTAAYYCAVQGYSGGYYYTCEDSADFGFWGQGTQVTVSS
notes: Nanobody
As to B8, in assay [4], the “IC50 (read off the curve)” value is roughly 3 nM.

(Values after patent US20120076796A1 (Ablynx, published 2012).)
